Experimental data taken from patent US20050261475A1.

Biological target: recombinant microtubule-associated protein Tau (Homo sapiens (Human)) (UniProt P10636)

in vitro phosphorylation, stoichiometry; MALDI-TOF MS of tryptic peptides (phosphates per Tau molecule): 0.5
Substance: purified active CDK5/p25 complex (enzyme)
